The record followed here is PMC7935978.

The test system of the data set is FUS-Gal4. Nature of the data set: single-molecule (DNA curtains, koff/kon). As to conditions: condensate-DNA interaction; protein label and DNA substrate inferred; 40 mM Tris-HCl pH 7.5, 150 mM KCl, 2 mM MgCl2, 1 mM DTT, 0.2 mg/ml BSA; EMSA 30 min at room temperature.

The substance Lambda DNA + 7x Gal4 sites had a dissociation constant Kd of 0.8 nM.
